Source: article PMC4239663, “Structural basis for extracellular cis and trans RPTPσ signal competition in synaptogenesis” (Nature Communications, 2014)
Substitutions are numbered along the chain they refer to. Names and notes keep the numbering of the source. Values joined by “and” are separate entries in the source; they are usually repeats but may differ in a detail not shown here. Identical values can stand only once. One block for each molecule: values may come before it.

Assays:
[1] = target: human RPTPσ Ig1–3 (human)
[2] = target: human RPTPσ Ig1–3 WT, C-terminal Avitag, immobilized (human); assay: SPR; equilibrium; biotinylated human RPTPσ Ig1–3 (wild type or mutants) immobilized on streptavidin-coated CM5 chips, mouse TrkC LRRIg1 as analyte; 10 mM HEPES pH 7.5, 150 mM NaCl, 0.01% Tween 20, 25 °C
[3] = target: human RPTPσ Ig1–3 R227A+R228A (R228A+R229A in human numbering), C-terminal Avitag (human); assay: as above
[4] = target: chicken RPTPσ Ig1–3 (chicken, UniProt F1NWE3 29-316); assay: SPR; equilibrium; biotinylated chicken TrkC LRRIg1 variants immobilized on streptavidin-coated CM5 chips, chicken RPTPσ Ig1–3 as analyte; 10 mM HEPES pH 7.5, 150 mM NaCl, 0.01% Tween 20, 25 °C; 1 M MgCl2 regeneration for LRRIg1 2Q; conditions: both partners purified
[5] = target: chicken TrkC LRRIg1 2N, C-terminal Avitag, immobilized (chicken, UniProt Q91044 32-302, N163Q | N232Q | N259Q | N267Q | N294Q, biotin on the Avitag (enzymatic)); assay: SPR
[6] = target: T1, mouse TrkC LRRIg1 (soluble) (mouse, UniProt Q6VNS1 32-302); assay: SPR
T1 chain: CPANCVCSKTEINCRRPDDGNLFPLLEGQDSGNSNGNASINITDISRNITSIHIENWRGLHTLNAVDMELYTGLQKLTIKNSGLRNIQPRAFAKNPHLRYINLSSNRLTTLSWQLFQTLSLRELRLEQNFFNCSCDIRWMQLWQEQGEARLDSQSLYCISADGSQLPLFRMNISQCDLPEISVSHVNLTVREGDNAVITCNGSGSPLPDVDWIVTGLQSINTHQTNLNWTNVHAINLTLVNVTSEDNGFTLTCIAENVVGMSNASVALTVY

[7] = target: mouse TrkC LRRIg1, C-terminal Avitag, immobilized (mouse) (UniProt Q6VNS1); assay: SPR; equilibrium; biotinylated mouse TrkC LRRIg1 (wild type or D240A+D242A) immobilized on streptavidin-coated CM5 chips, human RPTP proteins as analytes; 10 mM HEPES pH 7.5, 150 mM NaCl, 0.01% Tween 20, 25 °C; in Fig. 6a also with increasing HS or heparin-dp10
[8] = target: T2, mouse NGL-3 Ecto (mouse, UniProt P0C192 39-574, biotin on the Avitag (enzymatic)); assay: SPR
T2 chain: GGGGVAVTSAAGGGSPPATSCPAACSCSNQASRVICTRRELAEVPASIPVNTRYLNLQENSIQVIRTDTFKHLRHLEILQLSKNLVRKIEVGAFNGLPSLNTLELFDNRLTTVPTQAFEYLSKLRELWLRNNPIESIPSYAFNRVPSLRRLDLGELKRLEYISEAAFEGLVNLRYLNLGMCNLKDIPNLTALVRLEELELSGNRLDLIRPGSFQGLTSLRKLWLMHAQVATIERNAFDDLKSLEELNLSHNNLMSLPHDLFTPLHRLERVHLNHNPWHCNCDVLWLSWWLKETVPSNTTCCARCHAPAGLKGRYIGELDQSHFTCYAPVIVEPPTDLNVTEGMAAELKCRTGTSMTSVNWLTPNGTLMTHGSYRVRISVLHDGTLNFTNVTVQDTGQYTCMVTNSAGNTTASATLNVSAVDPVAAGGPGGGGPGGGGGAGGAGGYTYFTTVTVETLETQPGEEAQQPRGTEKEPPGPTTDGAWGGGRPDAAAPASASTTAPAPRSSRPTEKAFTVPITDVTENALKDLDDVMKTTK

[9] = target: T3, mouse TrkC LRRIg1, C-terminal Avitag, immobilized (mouse, UniProt Q6VNS1 32-302, biotin on the Avitag (enzymatic)); assay: SPR
T3 chain: T1 chain

[10] = target: T4, mouse TrkC LRRIg1 2Q (Mus musculus); assay: SPR
T4 chain: T1 chain with N37Q, N41Q

- induced presynaptic differentiation in rat hippocampal neurons co-cultured with COS-7 cells expressing mouse TrkC TM, with heparin-dp10 (30 μg/ml, ~10 μM) against mock [1]: 2 fold
Molecule: mouse TrkC LRRIg1, C-terminal Avitag, immobilized (from UniProt Q6VNS1 32-302) (domain or fragment)

- Kd [2]: 1800 nM
- Kd [3]: 7 µM
Molecule: mouse TrkC LRRIg1 (soluble) (from UniProt Q6VNS1 32-302) (domain or fragment)

- Kd [4]: 216 nM
B1: chicken TrkC LRRIg1 2N, C-terminal Avitag, immobilized (domain or fragment, UniProt Q91044 32-302, looked up)
chain: CPANCLCSKTDINCKKPDDGNLFPLLEGQDSGSSNGNTSINITDISRNITSIHIENWKNLQTLNAVDMELYTGLQRLTIRNSGLRNIQPRAFAKNPHLRYIDLSGNRLTTLSWQLFQTLRLFDLRLERNPFQCSCDIRWIQLWQEKGEANLQSQQLHCMNLDTAVILLRNMNITQCDLPEISVSHVNLTVREGENAVITCQGSGSPLPDVDWTVADLHSINTHQTNLQWTNVHAIQLTLVNVTSEDNGFLLTCIAENVVGMSQASVLLTVY
modifications: biotin on the Avitag (enzymatic)
notes: chicken TrkC LRRIg1, amino acids 32–302 of NCBI NM_205169.1, residues 63–77 re-added to LRRIg1cryst; not shown: Avitag (BirA recognition site), C-terminal, kept

- Kd [4]: 38 nM
B2: chicken TrkC LRRIg1 2Q, C-terminal Avitag, immobilized (domain or fragment, UniProt Q91044 32-302, looked up)
chain: B1 chain with N37Q, N41Q
modifications: biotin on the Avitag (enzymatic)
notes: chicken TrkC LRRIg1, amino acids 32–302 of NCBI NM_205169.1, residues 63–77 re-added with N68Q+N72Q; not shown: Avitag (BirA recognition site), C-terminal, kept

- Kd [4]: 4800 nM
B3: chicken TrkC LRRIg1cryst, C-terminal Avitag, immobilized (domain or fragment, UniProt Q91044 32-302, looked up)
chain: CPANCLCSKTDINCKKPDDGNLFPLLEGQDSRNITSIHIENWKNLQTLNAVDMELYTGLQRLTIRNSGLRNIQPRAFAKNPHLRYIDLSGNRLTTLSWQLFQTLRLFDLRLERNPFQCSCDIRWIQLWQEKGEANLQSQQLHCMNLDTAVILLRNMNITQCDLPEISVSHVNLTVREGENAVITCQGSGSPLPDVDWTVADLHSINTHQTNLQWTNVHAIQLTLVNVTSEDNGFLLTCIAENVVGMSQASVLLTVY
modifications: biotin on the Avitag (enzymatic)
notes: chicken TrkC LRRIg1, amino acids 32–302 of NCBI NM_205169.1, lacking residues 63–77; not shown: Avitag (BirA recognition site), C-terminal, kept

- Kd [5]: 2600 nM
B4: chicken RPTPσ Ig1-3 ΔK (protein)
chain: ESPPVFIKKPVDQIGVSGGVASFVCQATGDPKPRVTWNAAGAAVNSQRFETIEFDESAGAVLRIQPLRTPRDENIYECVAQNPHGEVTVHAKLTVLREDQLPPGFPNIDMGPQLKVVERTRTATMLCAASGNPDPEITWFKDFLPVDPSTSNGRIKQLRSGGLQIESSEETDQGKYECVASNSAGVRYSSPANLYVRVRRVAPRFSILPVSHEIMPGGNVNITCVAVGSPMPYVKWMQGAEDLTPEDDMPVGRNVLELTDVKDSANYTCVAMSSLGVIEAVAQITVKS

- Kd [6]: 4800 nM
B5: RPTPσ with the meB mini-exon inserted between R225 and V226 (domain or fragment)
chain: EEPPRFIKEPKDQIGVSGGVASFVCQATGDPKPRVTWNKKGKKVNSQRFETIEFDESAGAVLRIQPLRTPRDENVYECVAQNSVGEITVHAKLTVLREDQLPSGFPNIDMGPQLKVVERTRTATMLCAASGNPDPEITWFKDFLPVDPSASNGRIKQLRSGALQIESSEETDQGKYECVATNSAGVRYSSPANLYVRELREVRRVAPRFSILPMSHEIMPGGNVNITCVAVGSPMPYVKWMQGAEDLTPEDDMPVGRNVLELTDVKDSANYTCVAMSSLGVIEAVAQITVKSLPKA

- Kd [7]: 516 nM
- Kd [8]: > 7.3 µM
- Kd [9]: 1500 nM
B6: human RPTPσ Ecto (domain or fragment)
chain: EEPPRFIKEPKDQIGVSGGVASFVCQATGDPKPRVTWNKKGKKVNSQRFETIEFDESAGAVLRIQPLRTPRDENVYECVAQNSVGEITVHAKLTVLREDQLPSGFPNIDMGPQLKVVERTRTATMLCAASGNPDPEITWFKDFLPVDPSASNGRIKQLRSGALQIESSEETDQGKYECVATNSAGVRYSSPANLYVRVRRVAPRFSILPMSHEIMPGGNVNITCVAVGSPMPYVKWMQGAEDLTPEDDMPVGRNVLELTDVKDSANYTCVAMSSLGVIEAVAQITVKSLPKAPGTPMVTENTATSITITWDSGNPDPVSYYVIEYKSKSQDGPYQIKEDITTTRYSIGGLSPNSEYEIWVSAVNSIGQGPPSESVVTRTGEQAPASAPRNVQARMLSATTMIVQWEEPVEPNGLIRGYRVYYTMEPEHPVGNWQKHNVDDSLLTTVGSLLEDETYTVRVLAFTSVGDGPLSDPIQVKTQQGVPGQPMNLRAEARSETSITLSWSPPRQESIIKYELLFREGDHGREVGRTFDPTTSYVVEDLKPNTEYAFRLAARSPQGLGAFTPVVRQRTLQSISPKNFKVKMIMKTSVLLSWEFPDNYNSPTPYKIQYNGLTLDVDGRTTKKLITHLKPHTFYNFVLTNRGSSLGGLQQTVTAWTAFNLLNGKPSVAPKPDADGFIMVYLPDGQSPVPVQSYFIVMVPLRKSRGGQFLTPLGSPEDMDLEELIQDISRLQRRSLRHSRQLEVPRPYIAARFSVLPPTFHPGDQKQYGGFDNRGLEPGHRYVLFVLAVLQKSEPTFAASPFSDPFQLDNPDPQPIVDGEEG

- Kd [10]: 140 nM
- Kd [7]: 258 nM
B7: human RPTPσ Ig1–3 (domain or fragment)
chain: EEPPRFIKEPKDQIGVSGGVASFVCQATGDPKPRVTWNKKGKKVNSQRFETIEFDESAGAVLRIQPLRTPRDENVYECVAQNSVGEITVHAKLTVLREDQLPSGFPNIDMGPQLKVVERTRTATMLCAASGNPDPEITWFKDFLPVDPSASNGRIKQLRSGALQIESSEETDQGKYECVATNSAGVRYSSPANLYVRVRRVAPRFSILPMSHEIMPGGNVNITCVAVGSPMPYVKWMQGAEDLTPEDDMPVGRNVLELTDVKDSANYTCVAMSSLGVIEAVAQITVKSLPKA

- Kd [6]: 2800 nM
B8: human RPTPσ Ig1–3 ΔK (K68A+K69A+K71A+K72A) (domain or fragment)
chain: B7 chain with K39A, K40A, K42A, K43A

- Kd [6]: 580 nM and 551 nM
B9: human RPTPσ Ig1–3 WT, C-terminal Avitag, immobilized (domain or fragment)
chain: B7 chain
modifications: biotin on the Avitag (enzymatic)

- Kd [5]: 2500 nM
B10: chicken RPTPσ Ig1–3, C-terminal Avitag, immobilized (domain or fragment)
chain: ESPPVFIKKPVDQIGVSGGVASFVCQATGDPKPRVTWNKKGKKVNSQRFETIEFDESAGAVLRIQPLRTPRDENIYECVAQNPHGEVTVHAKLTVLREDQLPPGFPNIDMGPQLKVVERTRTATMLCAASGNPDPEITWFKDFLPVDPSTSNGRIKQLRSGGLQIESSEETDQGKYECVASNSAGVRYSSPANLYVRELREVRRVAPRFSILPVSHEIMPGGNVNITCVAVGSPMPYVKWMQGAEDLTPEDDMPVGRNVLELTDVKDSANYTCVAMSSLGVIEAVAQI
modifications: biotin on the Avitag (enzymatic)
